Patent US20160002331A1 (Pfizer, published 2016)

T1: human Notch1 NRR_Avi_His recombinant protein (human, UniProt P46531 1434-1737)
T1 construct: Secreted from CHO-PACE cells; cleaved at S1 into an N-terminal ~26 kDa half (LNR-A, B, C, HD1) and a C-terminal ~12 kDa half (HD2 and tag) that stay associated non-covalently; written here as one chain; also called recombinant human Notch1 NRR; human Notch1 NRR immunogen
T1 sequence: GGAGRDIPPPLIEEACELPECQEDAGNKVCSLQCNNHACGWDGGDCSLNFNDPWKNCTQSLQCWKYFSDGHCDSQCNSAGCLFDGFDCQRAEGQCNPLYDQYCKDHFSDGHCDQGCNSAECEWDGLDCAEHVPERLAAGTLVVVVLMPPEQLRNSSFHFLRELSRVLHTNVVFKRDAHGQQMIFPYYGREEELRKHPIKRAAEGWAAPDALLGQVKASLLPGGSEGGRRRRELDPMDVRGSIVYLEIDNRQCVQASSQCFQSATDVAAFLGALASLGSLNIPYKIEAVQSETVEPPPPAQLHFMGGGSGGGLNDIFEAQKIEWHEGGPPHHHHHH

T2: Human Notch2 NRR-Fc (human, UniProt Q04721 1425-1677, limits assumed)
T2 construct: domain: NRR region; Made in CHO-PACE cells; also called human Notch2 NRR-Fc fusion protein; not shown: human IgG1 Fc fragment
T2 sequence (looked up): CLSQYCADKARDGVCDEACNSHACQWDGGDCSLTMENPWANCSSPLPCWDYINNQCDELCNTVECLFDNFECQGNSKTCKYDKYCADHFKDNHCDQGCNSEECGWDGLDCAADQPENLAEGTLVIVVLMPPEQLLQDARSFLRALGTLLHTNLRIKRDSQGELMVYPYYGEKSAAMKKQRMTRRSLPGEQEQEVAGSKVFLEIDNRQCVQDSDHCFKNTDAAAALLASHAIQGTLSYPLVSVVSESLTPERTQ

T3: Human Notch3 NRR-Fc (human, UniProt Q9UM47 1378-1643, limits assumed)
T3 construct: domain: NRR region; also called human Notch3 NRR-Fc fusion protein; not shown: human IgG1 Fc fragment
T3 sequence (looked up): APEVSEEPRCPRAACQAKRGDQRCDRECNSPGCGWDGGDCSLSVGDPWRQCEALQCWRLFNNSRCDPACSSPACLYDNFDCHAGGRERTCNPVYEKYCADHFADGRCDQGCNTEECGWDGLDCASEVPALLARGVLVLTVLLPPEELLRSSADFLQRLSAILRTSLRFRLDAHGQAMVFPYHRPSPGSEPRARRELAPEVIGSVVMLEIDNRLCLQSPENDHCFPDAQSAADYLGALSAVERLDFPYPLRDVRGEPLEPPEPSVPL

T4: Mouse Notch3 NRR-Fc (mouse, UniProt Q61982 1379-1643, limits assumed)
T4 construct: domain: NRR region; also called mouse Notch3 NRR-Fc fusion protein; not shown: Fc part
T4 sequence (looked up): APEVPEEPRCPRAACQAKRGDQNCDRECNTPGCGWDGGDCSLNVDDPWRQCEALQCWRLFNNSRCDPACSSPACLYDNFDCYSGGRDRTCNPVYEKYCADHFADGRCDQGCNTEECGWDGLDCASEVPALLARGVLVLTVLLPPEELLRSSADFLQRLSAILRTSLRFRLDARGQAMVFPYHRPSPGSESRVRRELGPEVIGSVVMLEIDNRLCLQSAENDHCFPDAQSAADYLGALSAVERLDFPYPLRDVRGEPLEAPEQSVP


Key:
[1] = target: T5, full-length human Notch1 expressed on the cell surface (human, UniProt P46531 19-2555); assay: competition ELISA on U-2 OS cells expressing full-length human Notch1; competitor 0.8 nM biotinylated rat 438
T5 construct: whole, on cells; On U-2 OS cells stably overexpressing it (ELISAs, reporter cells); also called cell surface full-length human Notch1; native Notch1 receptor
T5 sequence (P46531 19-2555): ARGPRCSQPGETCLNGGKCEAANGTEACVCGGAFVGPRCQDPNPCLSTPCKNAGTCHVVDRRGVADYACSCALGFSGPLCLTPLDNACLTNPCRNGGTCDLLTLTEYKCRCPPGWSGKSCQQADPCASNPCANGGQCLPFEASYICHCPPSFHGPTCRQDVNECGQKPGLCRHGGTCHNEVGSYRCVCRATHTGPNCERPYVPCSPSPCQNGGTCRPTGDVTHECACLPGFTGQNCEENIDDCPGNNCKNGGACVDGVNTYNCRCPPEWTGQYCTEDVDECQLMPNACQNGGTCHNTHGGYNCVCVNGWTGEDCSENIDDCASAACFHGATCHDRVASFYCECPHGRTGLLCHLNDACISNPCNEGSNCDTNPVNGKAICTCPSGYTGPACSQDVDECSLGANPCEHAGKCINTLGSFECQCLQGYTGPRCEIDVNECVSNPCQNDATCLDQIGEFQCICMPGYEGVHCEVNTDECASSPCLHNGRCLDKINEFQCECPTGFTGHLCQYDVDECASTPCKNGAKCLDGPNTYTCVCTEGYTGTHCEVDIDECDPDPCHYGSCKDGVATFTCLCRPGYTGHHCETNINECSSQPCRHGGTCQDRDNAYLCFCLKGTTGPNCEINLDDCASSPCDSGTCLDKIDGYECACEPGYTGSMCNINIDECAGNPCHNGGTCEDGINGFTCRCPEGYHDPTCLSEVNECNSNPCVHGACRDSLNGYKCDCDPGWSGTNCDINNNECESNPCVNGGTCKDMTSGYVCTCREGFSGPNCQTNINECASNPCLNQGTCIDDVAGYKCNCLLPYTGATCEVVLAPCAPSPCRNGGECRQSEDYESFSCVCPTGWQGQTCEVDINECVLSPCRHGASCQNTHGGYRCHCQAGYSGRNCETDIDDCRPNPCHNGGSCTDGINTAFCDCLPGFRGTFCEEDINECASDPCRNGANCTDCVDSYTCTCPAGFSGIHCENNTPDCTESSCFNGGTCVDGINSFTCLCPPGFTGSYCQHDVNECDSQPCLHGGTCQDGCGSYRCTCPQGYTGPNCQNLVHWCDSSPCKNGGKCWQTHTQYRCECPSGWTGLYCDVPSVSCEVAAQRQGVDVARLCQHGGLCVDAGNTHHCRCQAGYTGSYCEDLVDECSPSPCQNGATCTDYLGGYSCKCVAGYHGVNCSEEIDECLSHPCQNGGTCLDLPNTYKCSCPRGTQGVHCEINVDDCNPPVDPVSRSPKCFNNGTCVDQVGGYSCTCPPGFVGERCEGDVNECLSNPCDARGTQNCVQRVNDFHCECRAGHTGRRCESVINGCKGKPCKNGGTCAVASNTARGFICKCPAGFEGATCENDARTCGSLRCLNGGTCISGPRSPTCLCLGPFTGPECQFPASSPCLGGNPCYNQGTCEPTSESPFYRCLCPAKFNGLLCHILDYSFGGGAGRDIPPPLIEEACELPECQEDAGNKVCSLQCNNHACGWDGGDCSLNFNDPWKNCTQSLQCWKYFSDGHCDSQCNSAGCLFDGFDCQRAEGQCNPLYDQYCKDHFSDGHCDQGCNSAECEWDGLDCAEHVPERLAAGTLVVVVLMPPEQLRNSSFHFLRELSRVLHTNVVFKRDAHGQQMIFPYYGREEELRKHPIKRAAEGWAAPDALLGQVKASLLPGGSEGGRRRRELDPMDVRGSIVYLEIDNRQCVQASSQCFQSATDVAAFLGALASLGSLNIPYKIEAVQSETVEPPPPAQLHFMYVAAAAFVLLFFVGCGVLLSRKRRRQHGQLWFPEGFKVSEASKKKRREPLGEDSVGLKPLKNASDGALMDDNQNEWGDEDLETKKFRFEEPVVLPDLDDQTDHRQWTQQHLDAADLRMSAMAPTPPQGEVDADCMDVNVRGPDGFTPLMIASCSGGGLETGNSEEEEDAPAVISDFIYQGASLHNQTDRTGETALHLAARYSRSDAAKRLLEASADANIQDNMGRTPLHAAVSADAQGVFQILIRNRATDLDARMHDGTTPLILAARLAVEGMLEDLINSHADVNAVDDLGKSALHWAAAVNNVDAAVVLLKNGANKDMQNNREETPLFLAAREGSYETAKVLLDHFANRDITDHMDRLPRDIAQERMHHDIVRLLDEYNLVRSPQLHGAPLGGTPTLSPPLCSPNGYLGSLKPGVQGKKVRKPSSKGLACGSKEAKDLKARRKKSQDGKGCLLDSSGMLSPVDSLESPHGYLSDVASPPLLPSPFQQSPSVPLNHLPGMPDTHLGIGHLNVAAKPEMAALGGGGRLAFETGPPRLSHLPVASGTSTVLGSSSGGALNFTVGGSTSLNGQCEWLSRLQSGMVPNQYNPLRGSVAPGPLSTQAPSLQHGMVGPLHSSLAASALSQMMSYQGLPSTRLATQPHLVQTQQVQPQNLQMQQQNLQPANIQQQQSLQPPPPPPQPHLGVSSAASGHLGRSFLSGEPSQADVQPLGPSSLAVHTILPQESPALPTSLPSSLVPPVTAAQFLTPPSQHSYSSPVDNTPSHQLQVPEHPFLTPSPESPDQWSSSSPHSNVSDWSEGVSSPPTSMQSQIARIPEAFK
Procedure: (§1) In a similar manner as described for recombinant protein or cell based ELISAs, 96 well cell culture plates were either coated with Notch1 NRR-Avi_His protein (hi-bound co-Star plates), or seeded with full length Notch1 expressing U-2 OS cells (cell culture plate, Co-star), respectively.
(§2) After incubation for 2 hours, the plates were washed, as described above, and HRP-conjugated streptavidin (Southern Biotech) diluted 1:5000 in blocking buffer was applied. Incubation with streptavidin was allowed for 30 min before the plates were washed again and developed with TMB solution for 10 minutes. Developing reaction was stopped by adding 0.18M H₂SO₄ and absorbance at 450 nm was measured. Data plotting and analyses were performed with Microsoft Excel and Graphpad-Prizm software.

[2] = target: T5, full-length human Notch1 expressed on …; assay: cell-based or functional assay
[3] = target: T5, full-length human Notch1 expressed on …; assay: cell-based or functional assay; remark: listed apart in the source
[4] = target: full-length mouse Notch1 expressed on the cell surface of U-2 OS cells (mouse, UniProt Q01705 19-2531); assay: cell-based or functional assay
full-length mouse Notch1 expressed on the cell surface of U-2 OS cells, sequence (Q01705 19-2531): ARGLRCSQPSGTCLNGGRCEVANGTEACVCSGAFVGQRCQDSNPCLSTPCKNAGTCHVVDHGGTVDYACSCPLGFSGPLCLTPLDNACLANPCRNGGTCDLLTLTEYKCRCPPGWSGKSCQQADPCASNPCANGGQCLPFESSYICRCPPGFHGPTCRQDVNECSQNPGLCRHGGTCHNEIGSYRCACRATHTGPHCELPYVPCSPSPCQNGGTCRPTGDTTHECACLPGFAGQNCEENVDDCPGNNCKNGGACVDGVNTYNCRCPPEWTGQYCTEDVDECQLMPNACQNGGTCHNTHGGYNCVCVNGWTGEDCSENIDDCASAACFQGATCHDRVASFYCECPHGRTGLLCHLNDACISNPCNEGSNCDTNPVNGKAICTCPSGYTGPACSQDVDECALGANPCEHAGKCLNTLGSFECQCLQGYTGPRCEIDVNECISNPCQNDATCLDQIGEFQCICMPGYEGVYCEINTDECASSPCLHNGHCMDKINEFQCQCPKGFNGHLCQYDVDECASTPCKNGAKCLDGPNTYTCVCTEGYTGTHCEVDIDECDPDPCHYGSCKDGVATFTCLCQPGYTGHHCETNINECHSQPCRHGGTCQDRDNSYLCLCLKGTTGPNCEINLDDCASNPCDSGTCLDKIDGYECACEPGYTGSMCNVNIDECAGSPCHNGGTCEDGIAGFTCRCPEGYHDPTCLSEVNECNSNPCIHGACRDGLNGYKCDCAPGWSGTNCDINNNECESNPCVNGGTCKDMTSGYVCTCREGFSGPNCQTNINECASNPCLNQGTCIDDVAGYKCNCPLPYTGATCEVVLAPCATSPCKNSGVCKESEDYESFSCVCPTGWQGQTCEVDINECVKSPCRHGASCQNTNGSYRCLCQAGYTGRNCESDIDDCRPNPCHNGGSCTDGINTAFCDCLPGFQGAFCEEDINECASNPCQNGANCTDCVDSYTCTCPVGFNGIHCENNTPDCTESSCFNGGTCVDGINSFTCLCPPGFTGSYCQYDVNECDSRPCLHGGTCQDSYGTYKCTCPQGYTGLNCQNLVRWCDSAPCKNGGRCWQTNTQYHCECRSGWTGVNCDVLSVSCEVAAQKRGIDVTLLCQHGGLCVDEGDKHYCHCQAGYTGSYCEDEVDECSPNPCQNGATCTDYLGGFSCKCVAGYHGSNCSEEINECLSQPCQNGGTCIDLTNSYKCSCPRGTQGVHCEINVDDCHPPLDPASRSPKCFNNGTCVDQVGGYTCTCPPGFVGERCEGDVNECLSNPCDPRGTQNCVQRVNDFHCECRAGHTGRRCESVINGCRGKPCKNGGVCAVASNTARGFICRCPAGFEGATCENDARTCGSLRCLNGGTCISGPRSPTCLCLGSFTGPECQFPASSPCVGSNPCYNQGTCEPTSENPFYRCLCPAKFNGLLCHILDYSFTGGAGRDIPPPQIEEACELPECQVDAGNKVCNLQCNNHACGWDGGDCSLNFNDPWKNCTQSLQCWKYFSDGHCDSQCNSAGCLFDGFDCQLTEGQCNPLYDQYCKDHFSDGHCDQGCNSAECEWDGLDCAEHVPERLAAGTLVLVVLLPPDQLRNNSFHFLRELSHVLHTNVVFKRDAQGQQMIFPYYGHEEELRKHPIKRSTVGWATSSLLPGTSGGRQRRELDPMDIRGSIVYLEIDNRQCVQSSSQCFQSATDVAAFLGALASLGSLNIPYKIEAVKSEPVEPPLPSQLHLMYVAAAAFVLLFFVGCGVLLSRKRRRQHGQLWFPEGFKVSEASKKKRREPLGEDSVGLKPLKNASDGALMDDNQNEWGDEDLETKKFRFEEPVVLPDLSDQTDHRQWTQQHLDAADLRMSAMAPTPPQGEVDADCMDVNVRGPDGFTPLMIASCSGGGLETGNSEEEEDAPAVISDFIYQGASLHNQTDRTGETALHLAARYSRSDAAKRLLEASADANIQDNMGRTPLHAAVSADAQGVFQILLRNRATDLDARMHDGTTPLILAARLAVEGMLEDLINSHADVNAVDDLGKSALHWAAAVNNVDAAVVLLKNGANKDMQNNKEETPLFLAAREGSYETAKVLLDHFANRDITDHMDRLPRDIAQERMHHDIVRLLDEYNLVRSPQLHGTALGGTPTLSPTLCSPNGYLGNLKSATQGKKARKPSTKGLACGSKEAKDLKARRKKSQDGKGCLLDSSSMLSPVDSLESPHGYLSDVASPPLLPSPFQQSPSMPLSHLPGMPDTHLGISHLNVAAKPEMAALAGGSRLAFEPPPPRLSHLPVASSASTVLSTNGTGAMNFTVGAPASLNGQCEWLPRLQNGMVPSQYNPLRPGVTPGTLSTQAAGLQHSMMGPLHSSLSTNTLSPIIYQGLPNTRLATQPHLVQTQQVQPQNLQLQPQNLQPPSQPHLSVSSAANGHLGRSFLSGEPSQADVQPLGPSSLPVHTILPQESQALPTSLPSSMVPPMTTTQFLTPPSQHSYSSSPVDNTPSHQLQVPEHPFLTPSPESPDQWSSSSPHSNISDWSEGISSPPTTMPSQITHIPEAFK

[5] = target: T6, full-length human Notch3 expressed on U-2 OS cell surface (human, UniProt Q9UM47 40-2321); assay: binding to Notch3 U-2 OS cells (N/B represents non-binding)
T6 construct: whole, on cells; also called Notch3 U2-OS cells; NotchS U-2 OS cells

[6] = target: T1, human Notch1 NRR_Avi_His recombinant …; assay: competition ELISA on coated human Notch1 NRR_Avi_His; competitor 0.8 nM biotinylated rat 438
Procedure: as §1, §2

Human Notch2 NRR-Fc = target: T2, Human Notch2 NRR-Fc; assay: binding to recombinant NRR-Fc fusion protein (N/B represents non-binding)
Human Notch3 NRR-Fc = target: T3, Human Notch3 NRR-Fc; assay: as above
Mouse Notch3 NRR-Fc = target: T4, Mouse Notch3 NRR-Fc; assay: as above

| EC50 [1] | Firefly/Renilla Luminescence, human Notch1 reporter cells + 5 mM EDTA, 0.01 µg/mL antibody [2] | Firefly/Renilla Luminescence, human Notch1 reporter cells + 5 mM EDTA, 0.1 µg/mL antibody [2] | Firefly/Renilla Luminescence, human Notch1 reporter cells + 5 mM EDTA, 1 µg/mL antibody [2] | Firefly/Renilla Luminescence, human Notch1 reporter cells + 5 mM EDTA, 10 µg/mL antibody [2] | Firefly/Renilla Luminescence, human Notch1 reporter cells + 5 mM EDTA, 30 µg/mL antibody [2] | IC50, human Notch1 reporter gene co-culture assay (DLL4-HEK293) [3] | IC50, mouse Notch1 reporter gene co-culture assay (DLL4-HEK293) [4] | binding result [5] | EC50 [6] | binding result (Human Notch2 NRR-Fc) | binding result (Human Notch3 NRR-Fc) | binding result (Mouse Notch3 NRR-Fc) | Binder |
| --- | --- | --- | --- | --- | --- | --- | --- | --- | --- | --- | --- | --- | --- |
| 3.6 nM | 338 Firefly/Renilla ratio | 246 Firefly/Renilla ratio | 117 Firefly/Renilla ratio | 54.3 Firefly/Renilla ratio | 46.9 Firefly/Renilla ratio | 0.68 nM | 0.71 nM | no binding | 1.5 nM |  |  |  | rat 438-mIgG1 (antibody, V domains shown, also called r438-mIgG; Rat438-mlgG) VH: AVQLVESGGGLVQPGRSLKLSCTASGFTFSSFAMAWVRQAPTKGLEWVASISYGGADTYYRDSVKGRFTISRDNAKSSLYLQMDSLRSEDTSTYYCAKDLPYYGYTPFVMDAWGQGTSVTVSS VL: DIMLTQSPPTLSVTPGETISLSCRASQRINTDLHWYQQKPNESPRVLIKFASQTISGVPSRFSGSGSGTDFTLNINRVEPEDFSVYYCQQSNSWPYTFGAGTKLELK |
|  |  |  |  |  |  |  |  |  |  | no binding | no binding | no binding | humanized 351 VH1.0/VL1.1 (antibody, human IgG1, kappa, V domains shown, full chains (VH1.0)-hIgG1-3M and (VL1.1)-hkappa) VH: EVQLVESGGGLVQPGGSLRLSCAASGFTFSHYGMNWVRQAPGKGLEWVASISRSGSYIRYVDTVKGRFTISRDNAKNSLYLQMNSLRAEDTAVYYCAREGQFGDYFEYWGQGTLVTVSS VL: DIQMTQSPSSLSASVGDRVTITCRASQKISTNLHWYQQKPGKAPKILIKYASQTISGVPSRFSGSGSGTDFTLTISSLQPEDFATYYCQQTNSWPLTFGGGTKVEIKR |
